{
  "source": "patent US20020160496A1",
  "about": "(DUKE UNIVERSITY, published 2002)",
  "proteins": {"B1": {"name": "GRP94 (glucose regulated protein of 94 kDa) purified from porcine pancreas (other, UniProt Q29092 22-804, looked up)", "chain": "EDEVDVDGTVEEDLGKSREGSRTDDEVVQREEEAIQLDGLNASQIRELREKSEKFAFQAEVNRMMKLIINSLYKNKEIFLRELISNASDALDKIRLISLTDENALAGNEELTVKIKCDKEKNLLHVTDTGVGMTREELVKNLGTIAKSGTSEFLNKMAEAQEDGQSTSELIGQFGVGFYSAFLVADKVIVTSKHNNDTQHIWESDSNEFSVIADPRGNTLGRGTTITLVLKEEASDYLELDTIKNLVKKYSQFINFPIYVWSSKTETVEEPMEEEEAAKEEKEESDDEAAVEEEEEEKKPKTKKVEKTVWDWELMNDIKPIWQRPSKEVEDDEYKAFYKSFSKESDDPMAYIHFTAEGEVTFKSILFVPTSAPRGLFDEYGSKKSDYIKLYVRRVFITDDFHDMMPKYLNFVKGVVDSDDLPLNVSRETLQQHKLLKVIRKKLVRKTLDMIKKIADEKYNDTFWKEFGTNIKLGVIEDHSNRTRLAKLLRFQSSHHPSDITSLDQYVERMKEKQDKIYFMAGSSRKEAESSPFVERLLKKGYEVIYLTEPVDEYCIQALPEFDGKRFQNVAKEGVKFDESEKSKENREAVEKEFEPLLNWMKDKALKDKIEKAVVSQRLTESPCALVASQYGWSGNMERIMKAQAYQTGKDISTNYYASQKKTFEINPRHPLIRDMLRRVKEDEDDKTVSDLAVVLFETATLRSGYLLPDTKAYGDRIERMLRLSLNIDPDAKVEEEPEEEPEETTEDTTEDTEQDDDEEMDAGADEEEQETSETSTAEKDEL", "notes": "also called gp96; ERp99"}},
  "target": "the molecule itself",
  "test": "blue native PAGE (BN-PAGE) of native, heat shocked and bis-ANS treated GRP94; self-association",
  "data": [
    {"protein": "B1", "values": [
      {"measurement": "binding result", "result": "binds"}
    ]}
  ]
}
